Five molecules from patent US20200115447A1 (Chugai, published 2020) can be followed below.

Assay [1] has as its target T1, human FcRn (human).
T1 construct: also called soluble human FcRn complexed with β2-microglobulin
Briefly: Biacore SPR, pH7.0, against VH3/L(WT)-IgG1.
T1 sequence (chain, as listed by the source limits assumed, chain 1 of 2): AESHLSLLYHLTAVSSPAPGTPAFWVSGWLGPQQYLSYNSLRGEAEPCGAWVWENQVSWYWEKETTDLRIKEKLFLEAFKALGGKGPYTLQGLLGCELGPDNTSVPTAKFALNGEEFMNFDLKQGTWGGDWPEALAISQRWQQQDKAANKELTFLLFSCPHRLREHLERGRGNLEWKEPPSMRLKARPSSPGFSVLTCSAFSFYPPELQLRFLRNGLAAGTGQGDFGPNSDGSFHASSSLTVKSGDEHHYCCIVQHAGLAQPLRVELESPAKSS
T1 sequence (P61769 21-119 limits assumed, chain 2 of 2): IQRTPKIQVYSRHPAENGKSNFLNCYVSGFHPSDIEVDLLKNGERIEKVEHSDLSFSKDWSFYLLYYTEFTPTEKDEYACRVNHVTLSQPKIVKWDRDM
Protocol: (§1) Kinetic analyses between human FcRn and the antibody were carried out using Biacore T100 (GE Healthcare). A suitable amount of protein L (ACTIGEN) was immobilized onto a Sensor chip CM4 (GE healthcare) by the amine coupling method, and antibodies of interest were captured onto it. Next, diluted solutions of FcRn and the running buffer which is the blank were injected, and human FcRn was made to interact with the antibodies captured on the sensor chip. The running buffer used was 50 mmol/L sodium phosphate, 150 mmol/L NaCl, 0.05% (w/v) Tween 20, pH7.0, and the buffer was used for the FcRn dilutions. The sensor chip was regenerated using 10 mmol/L Glycine-HCl, pH1.5. All measurements were carried out at 25° C. Based on the association rate constant ka (1/Ms) and dissociation rate constant kd (1/s), which are kinetic parameters, calculated from the sensorgram obtained by the measurement, the KD (M) (affinity) of each antibody toward human FcRn was calculated. Each parameter was calculated using the Biacore T100 Evaluation Software (GE Healthcare).

For assay [2], the target named is T2, human FcRn (human).
T2 construct: also called soluble human FcRn complexed with β2-microglobulin
Briefly: Biacore, pH 7.0.
T2 sequence (chain, as listed by the source limits assumed, chain 1 of 2): as the sequence (chain, as listed by the source limits assumed, chain 1 of 2) above
T2 sequence (P61769 21-119 limits assumed, chain 2 of 2): as the sequence (P61769 21-119 limits assumed, chain 2 of 2) above
Protocol: as §1

The target in assay [3] is T3, mFcγRI extracellular domain with C-terminal His-tag (mouse, UniProt P26151 25-297).
T3 construct: extracellular domain; also called mouse FcγRI
T3 sequence (looked up): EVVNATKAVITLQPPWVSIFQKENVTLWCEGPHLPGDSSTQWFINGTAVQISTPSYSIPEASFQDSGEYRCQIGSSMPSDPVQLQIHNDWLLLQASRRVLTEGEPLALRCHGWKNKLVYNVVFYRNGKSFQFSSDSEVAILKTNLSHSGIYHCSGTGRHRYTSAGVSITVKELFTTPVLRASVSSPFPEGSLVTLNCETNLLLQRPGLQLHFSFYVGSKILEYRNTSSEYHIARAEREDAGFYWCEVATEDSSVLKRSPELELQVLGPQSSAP
In words: Biacore SPR, antibody captured on Protein L, FcγR extracellular domain as analyte, 25 C.
Protocol: (§2) Analysis of interaction between each of the altered antibodies and the extracellular domain of the Fcγ receptor prepared as mentioned above was carried out using Biacore T100 (GE Healthcare), Biacore T200 (GE Healthcare), Biacore A100, and Biacore 4000. HBS-EP+(GE Healthcare) was used for the running buffer, and the interactions were measured with a measurement temperature at 25° C. Chips produced by immobilizing Protein L (ACTIGEN or BioVision) by the amine coupling method to a Series S sensor Chip CM5 (GE Healthcare) or Series S sensor Chip CM4 (GE Healthcare) were used.
After capturing of each of the altered antibodies onto these sensor chips, the extracellular domain of the Fcγ receptor diluted with the running buffer was allowed to act on the chips to measure the binding level of each of the domains to each of the antibodies, and the binding levels were compared. However, since the amount of the bound extracellular domain of the Fcγ receptor depends on the amount of the antibodies captured on the sensorchip, the amount of the bound extracellular domain of the Fcγ receptor was divided by the respective amount of captured antibody to obtain corrected values, and these values were compared. Furthermore, by reaction with 10 mM glycine-HCl having pH of 1.5, antibodies captured onto the sensor chips were washed, and the regenerated sensor chips were used repeatedly.

For assay [4], the target named is T4, mFcγRIII extracellular domain with C-terminal His-tag (mouse, UniProt P08508 31-215).
T4 construct: extracellular domain; also called mouse FcγRIII
T4 sequence (looked up): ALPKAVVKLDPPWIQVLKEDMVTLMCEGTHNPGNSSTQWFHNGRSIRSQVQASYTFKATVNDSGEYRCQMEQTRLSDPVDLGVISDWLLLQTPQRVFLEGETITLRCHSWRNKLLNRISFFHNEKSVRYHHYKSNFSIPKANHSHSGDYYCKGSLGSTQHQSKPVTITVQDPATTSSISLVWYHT
In words: Biacore SPR, antibody captured on Protein L, FcγR extracellular domain as analyte, 25 C, 1:1 Langmuir fit.
Protocol: as §2
(§3) The KD values of each of the altered antibodies for the extracellular domain of the Fcγ receptor were calculated according to the following kinetic analysis method.

Assay [5] deals with T5, mFcγRII extracellular domain with C-terminal His-tag (mouse, UniProt P08101 30-210).
T5 construct: extracellular domain; also called mouse FcγRII
T5 sequence (looked up): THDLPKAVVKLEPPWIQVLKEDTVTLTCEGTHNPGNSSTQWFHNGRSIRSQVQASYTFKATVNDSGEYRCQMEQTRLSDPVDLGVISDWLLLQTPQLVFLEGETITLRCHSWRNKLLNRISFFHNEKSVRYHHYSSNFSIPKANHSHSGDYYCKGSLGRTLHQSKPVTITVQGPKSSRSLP
Described as above.
Protocol: as §2, §3

The target in another assay is T6, mouse FcRn (mouse, UniProt Q61559 22-297; P01887 21-119, limits assumed).
T6 sequence (looked up) 1: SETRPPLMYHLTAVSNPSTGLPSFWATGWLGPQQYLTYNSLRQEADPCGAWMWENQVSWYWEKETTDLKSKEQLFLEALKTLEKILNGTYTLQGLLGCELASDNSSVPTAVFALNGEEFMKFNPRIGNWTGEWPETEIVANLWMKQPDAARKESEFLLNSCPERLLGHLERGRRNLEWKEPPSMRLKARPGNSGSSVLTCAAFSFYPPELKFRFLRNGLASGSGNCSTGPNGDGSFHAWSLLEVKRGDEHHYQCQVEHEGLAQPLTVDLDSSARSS
T6 sequence (looked up) 2: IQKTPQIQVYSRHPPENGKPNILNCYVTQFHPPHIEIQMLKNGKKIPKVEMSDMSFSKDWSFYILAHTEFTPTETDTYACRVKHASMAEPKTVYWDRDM
Briefly: Biacore SPR, mouse FcRn, pH 7.0.

The target in assay [6] is T7, human FcRn (human).
T7 construct: also called soluble human FcRn complexed with β2-microglobulin
In words: Biacore SPR, antibody captured on protein L, human FcRn as analyte, pH 7.0, 25 C.
T7 sequence (chain, as listed by the source limits assumed, chain 1 of 2): as the sequence (chain, as listed by the source limits assumed, chain 1 of 2) above
T7 sequence (P61769 21-119 limits assumed, chain 2 of 2): as the sequence (P61769 21-119 limits assumed, chain 2 of 2) above
Protocol: as §1

B1: IgG1-F157 (antibody)
heavy: QVQLQESGPGLVKPSETLSLTCAVSGHSISHDHAWSWVRQPPGEGLEWIGFISYSGITNYNPSLQGRVTISRDNSKNTLYLQMNSLRAEDTAVYYCARSLARTTAMDYWGEGTLVTVSSASTKGPSVFPLAPSSKSTSGGTAALGCLVKDYFPEPVTVSWNSGALTSGVHTFPAVLQSSGLYSLSSVVTVPSSSLGTQTYICNVNHKPSNTKVDKKVEPKSCDKTHTCPPCPAPELLGGPSVFLFPPKPKDTLMISRTAEVTCVVVDVSHEDPEVKFNWYVDGVEVHNAKTKPREEQYNSTYRVVSVLTPLHQDWLNGKEYKCKVSNKALPAPIEKTISKAKGQPREPQVYTLPPSRDELTKNQVSLTCLVKGFYPSDIAVEWESNGQPENNYKTTPPVLDSDGSFFLYSKLTVDKSRWQQGNVFSCSVLHEALHYHYTQKSLSLSP
light: not shown
notes: EU numbering; also called VH3/L(WT)-F157; copies: 2 + 2
B1: in the assay with human FcRn [1], the “fold affinity relative to IgG1” value is roughly 600 fold.

B2: F1353 (antibody)
heavy: QVQLQESGPGLVKPSETLSLTCAVSGHSISHDHAWSWVRQPPGEGLEWIGFISYSGITNYNPSLQGRVTISRDNSKNTLYLQMNSLRAEDTAVYYCARSLARTTAMDYWGEGTLVTVSSASTKGPSVFPLAPSSKSTSGGTAALGCLVKDYFPEPVTVSWNSGALTSGVHTFPAVLQSSGLYSLSSVVTVPSSSLGTQTYICNVNHKPSNTKVDKKVEPKSCDKTHTCPPCPAPELRGGPKVFLFPPKPKDTLYISRTPEVTCVVVDVSHEDPEVKFNWYVDGVEVHNAKTKPREEQYNSTYRVVSVLTVLHQDWLNGKEYKCKVSNKALPAPIEKTISKAKGQPREPQVYTLPPSRDELTKNQVSLTCLVKGFYPSDIAVEWESNGQPENNYKTTPPVLDSDGSFFLYSKLTVDKSRWQQGNVFSCSVMHEALDYHTTRKELSLSP
light: not shown
notes: EU numbering; copies: 2 + 2
For B2, the Kd with human FcRn [2] came to 133 nM.

B3: Fv4-mIgG1 (antibody)
heavy: QVQLQESGPGLVKPSETLSLTCAVSGHSISHDHAWSWVRQPPGEGLEWIGFISYSGITNYNPSLQGRVTISRDNSKNTLYLQMNSLRAEDTAVYYCARSLARTTAMDYWGEGTLVTVSSAKTTPPSVYPLAPGSAAQTNSMVTLGCLVKGYFPEPVTVTWNSGSLSSGVHTFPAVLQSDLYTLSSSVTVPSSTWPSETVTCNVAHPASSTKVDKKIVPRDCGCKPCICTVPEVSSVFIFPPKPKDVLTITLTPKVTCVVVDISKDDPEVQFSWFVDDVEVHTAQTQPREEQFNSTFRSVSELPIMHQDWLNGKEFKCRVNSAAFPAPIEKTISKTKGRPKAPQVYTIPPPKEQMAKDKVSLTCMITDFFPEDITVEWQWNGQPAENYKNTQPIMDTDGSYFVYSKLNVQKSNWEAGNTFTCSVLHEGLHNHHTEKSLSHSPGK
light: DIQMTQSPSSLSASVGDSVTITCQASTDISSHLNWYQQKPGKAPELLIYYGSHLLSGVPSRFSGSGSGTDFTFTISSLEAEDAATYYCGQGNRLPYTFGQGTKVEIERADAAPTVSIFPPSSEQLTSGGASVVCFLNNFYPKDINVKWKIDGSERQNGVLNSWTDQDSKDSTYSMSSTLTLTKDEYERHNSYTCEATHKTSTSPIVKSFNRNEC
notes: VH3-mIgG1 with VL3-mCK; copies: 2 + 2
Turning to B3, the binding result in assay [3] is reported as “no binding”. For the same molecule, the figures for the Kd in assay [4] and in assay [5] were 85 nM and 570 nM, respectively.

B4: Fv4-mF3 (antibody, mouse IgG1, kappa)
heavy: QVQLQESGPGLVKPSETLSLTCAVSGHSISHDHAWSWVRQPPGEGLEWIGFISYSGITNYNPSLQGRVTISRDNSKNTLYLQMNSLRAEDTAVYYCARSLARTTAMDYWGEGTLVTVSSAKTTPPSVYPLAPGSAAQTNSMVTLGCLVKGYFPEPVTVTWNSGSLSSGVHTFPAVLQSDLYTLSSSVTVPSSTWPSETVTCNVAHPASSTKVDKKIVPRDCGCKPCICTVPEVSSVFIFPPKPKDVLYITLEPKVTCVVVDISKDDPEVQFSWFVDDVEVHTAQTQPREEQFNSTFRSVSELPIMHQDWLNGKEFKCRVNSAAFPAPIEKTISKTKGRPKAPQVYTIPPPKEQMAKDKVSLTCMITDFFPEDITVEWQWNGQPAENYKNTQPIMDTDGSYFVYSKLNVQKSNWEAGNTFTCSVLHEGLKFHHTEKSLSHSPGK
light: DIQMTQSPSSLSASVGDSVTITCQASTDISSHLNWYQQKPGKAPELLIYYGSHLLSGVPSRFSGSGSGTDFTFTISSLEAEDAATYYCGQGNRLPYTFGQGTKVEIERADAAPTVSIFPPSSEQLTSGGASVVCFLNNFYPKDINVKWKIDGSERQNGVLNSWTDQDSKDSTYSMSSTLTLTKDEYERHNSYTCEATHKTSTSPIVKSFNRNEC
notes: VH3-mF3 with VL3-mCK; copies: 2 + 2
B4: the results for the Kd (in the assay with mouse FcRn; in assay [4]; in assay [5]) were 1.5 nM, 140 nM and 870 nM, respectively. Also, the binding result in assay [3] is given as “no binding”.

B5: F1430 (antibody, IgG1, name in EU numbering)
heavy: QVQLQESGPGLVKPSETLSLTCAVSGHSISHDHAWSWVRQPPGEGLEWIGFISYSGITNYNPSLQGRVTISRDNSKNTLYLQMNSLRAEDTAVYYCARSLARTTAMDYWGEGTLVTVSSASTKGPSVFPLAPSSKSTSGGTAALGCLVKDYFPEPVTVSWNSGALTSGVHTFPAVLQSSGLYSLSSVVTVPSSSLGTQTYICNVNHKPSNTKVDKKVEPKSCDKTHTCPPCPAPELRGGPKVFLFPPKPKDTLYISREPEVTCVVVDVSHEDPEVKFNWYVDGVEVHNAKTKPREEQYNSTYRVVSKLTPLHQDWLNGKEYKCKVSNKALPAPIEKTISKAKGQPREPQVYTLPPSRDELTKNQVSLTCLVKGFYPSDIAVEWESNGQPENNYKTTPPVLDSDGSFFLYSKLTVDKSRWQQGNVFSCSVMHEALDYHVTRKELSLSP
light: not shown
notes: EU numbering; copies: 2 + 2
Take B5: the equilibrium dissociation constant (Kd) with human FcRn [6] came out at 31 nM.
